Results published in patent US10106582B2, “Complex-formation-modulating agents and uses therefor” (Factor Therapeutics Limited, priority 2012, dated 2018).

Legend:
Conditions in all cases: spot stronger than negative controls = positive hit
[1] = biological target: T1, IGFBP-3 (Homo sapiens, UniProt P17936); test: VN-peptide array: binding of IGFBP-3 to immobilized overlapping 16-mer VN peptides
T1 construct: purchased GroPep
Source text: (§1) The inventors designed small-molecule VN-peptides that could potentially disrupt the formation of the IGF-I:IGFBP:VN trimeric or the IGF-II:VN dimeric complexes by binding to the IGFBPs and/or IGF-II and preventing their association with VN within the complex. To design peptides, the binding sites of IGFBP-3/-5 and IGF-II on VN were first determined using VN-peptide arrays. The entire VN protein sequence, excluding the signal peptide (residues 1-19), was divided into overlapping 16-mer peptides with 3AA frameshift/offset (for peptide sequences refer to Table 6) and immobilized onto cellulose membranes (peptide spotting was outsourced to PepMetric Technologies Inc). For a schematic of the arrangement of VN peptides and controls refer to FIG. 2. The resultant peptide arrays were incubated either with IGFBP-3, IGFBP-5 or IGF-II ligands, probed with the respective antibodies, the membranes developed using ECL, and imaged using the ChemiDoc™ XRS system (BioRad). The spots on the membrane were analysed using TotalLab array quantification software (TotalLab Ltd, Newcastle, England) identifying positive peptide spots by comparing each spot to the combined intensities of the negative controls.
(§2) The entire VN protein sequence, excluding the signal peptide (residues 1-19), was divided into overlapping 16-mer peptides with 3 amino acid (AA) frameshift/offset. This yielded 148 overlapping peptides covering the entire VN sequence (residues 20-478) (Table 6) with a resolution of 3 AA. Peptide synthesis and spotting onto a cellulose membrane were outsourced to PepMetric Technologies Inc. (Richmond, BC, Canada). For a diagrammatic illustration of the strategy used to divide an example amino acid sequence into peptides and to spot them onto the membrane, please refer to http://www.pepmetric.com/html/Pep-Overlap.html. The VN-overlapping peptides were generated using FMOC (9-fluorenylmethoxycarbonyl) Solid-Phase SPOT synthesis onto PEG-grafted amine-functionalized cellulose membrane (Whatman® 540 filter paper). The peptides were spotted onto the cellulose membrane in a 10×16 grid with each peptide being 10˜50 nM in concentration with >70% purity. Finally, these membranes were acetylated in order to cap the free ends of the spotted peptides preventing them from degradation during shipping and storage.
(§3) Along with the VN-peptides these membranes were also spotted with a positive control (i.e., universal binding peptides tested by the manufacturer to be positive for antibodies from goat, mouse, rat and chicken) and a negative control (ie. non-binding peptides as well as BSA) controls. For a schematic of the arrangement of VN-peptides and controls refer to FIG. 2 and for the sequence of each peptide corresponding to the grid number refer to Table 6. Four such replicate membranes were prepared and stored at room temperature in a clip sealed plastic bag. Long-term storage was at −20° C.
(§4) Methanol or ethanol was used to enhance the rehydration of peptide spots that might be hydrophobic. The peptides spotted onto the membranes were activated by incubating in 3 mL of 70% ethanol for five mins. The membranes were subsequently washed three times, 10 minutes each, in 10 mL TBS (Tris Buffered Saline; 8 g NaCl, 0.2 g KCl and 6.1 g Tris Base into 1000 mL of milliQ water, pH 7) with gentle rocking. Membrane blocking was performed by incubating in 10 mL casein-based membrane blocking buffer (MBS; Sigma-Aldrich) overnight at 4° C. The following day, the membranes were washed twice, 10 minutes each, in 10 mL TBS-T (TBS+0.05% Tween-20; pH 7).
(§5) Ligands used to test binding to VN-peptides were IGFBP-3, IGFBP-5 and IGF-II. For ligand binding, four separate solutions of 1 μg/mL ligand in 10 mL MBS buffer were prepared and each membrane was incubated in one of the four ligand solutions overnight at 4° C., with gentle rocking. […] The following day, the membranes were washed three times, 10 minutes each, in 10 mL TBS-T. […]

[2] = biological target: T2, IGF-II (Homo sapiens, UniProt P01344); test: VN-peptide array: binding of IGF-II to immobilized overlapping 16-mer VN peptides
T2 construct: purchased GroPep
Source text: as §1, §2, §3, §4, §5

[3] = biological target: T3, IGFBP-5 (Homo sapiens, UniProt P24593); test: VN-peptide array: binding of IGFBP-5 to immobilized overlapping 16-mer VN peptides
T3 construct: purchased GroPep
Source text: as §1
The entire VN protein sequence, excluding the signal peptide (residues 1-19), was divided into overlapping 16-mer peptides with 3 amino acid (AA) frameshift/offset. […]

T1 sequence (P17936 28-291): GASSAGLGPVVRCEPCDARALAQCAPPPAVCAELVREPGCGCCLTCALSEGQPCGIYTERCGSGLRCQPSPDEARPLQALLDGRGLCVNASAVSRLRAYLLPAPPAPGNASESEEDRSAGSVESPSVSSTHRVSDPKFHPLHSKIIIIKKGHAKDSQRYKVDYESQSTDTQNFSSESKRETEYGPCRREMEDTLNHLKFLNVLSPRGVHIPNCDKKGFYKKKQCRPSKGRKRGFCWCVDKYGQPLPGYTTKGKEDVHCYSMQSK
T3 sequence (P24593 21-272): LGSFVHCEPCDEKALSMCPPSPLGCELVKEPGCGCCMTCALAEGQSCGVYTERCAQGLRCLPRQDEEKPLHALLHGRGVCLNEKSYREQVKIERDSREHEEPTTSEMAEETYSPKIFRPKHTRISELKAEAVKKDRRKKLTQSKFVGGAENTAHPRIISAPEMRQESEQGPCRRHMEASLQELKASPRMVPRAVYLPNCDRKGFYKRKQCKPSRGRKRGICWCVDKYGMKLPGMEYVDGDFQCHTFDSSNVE
T2 sequence (P01344 25-91 limits assumed): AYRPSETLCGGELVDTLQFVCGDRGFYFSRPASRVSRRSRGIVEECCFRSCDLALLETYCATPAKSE

KTYLFKGSQYWRFEDG [Neg, reference compound]
Binding of IGFBP-3 on VN-peptide array (positive spot or not) [1]: did not show any binding | Binding of IGF-II on VN-peptide array (positive spot or not) [2]: did not show any binding | Binding of IGFBP-5 on VN-peptide array (positive spot or not) [3]: did not show any binding

LFSSEESNLGANNYDDYRMDWL (listed as Homo sapiens) [Peptide P7, human VN motif 7 mimic]
Binding of IGFBP-3 on VN-peptide array (positive spot or not) [1]: does not bind | Binding of IGF-II on VN-peptide array (positive spot or not) [2]: binds | Binding of IGFBP-5 on VN-peptide array (positive spot or not) [3]: does not bind
